Experimental data: US20220175781A1, “CD40L COMPOSITIONS AND METHODS FOR TUNABLE REGULATION” (Obsidian Therapeutics, Inc., priority 2019, published 2022)
“And” between values parts separate entries of the source, which are not always exact repeats. Equal values may be shown once.

Legend:
Jurkat cells [1] = assay: CD40L shedding ELISA of supernatant, Jurkat cells with or without CD40-Fc receptor; format: cell-based; design: CD40L levels in supernatant: unit not given here; details: 6 hours
Method: Sheddases e.g. ADAM10/17 present in the tumor microenvironment can cleave CD40L thereby preventing the successful activation of CD40 by CD40L. […] OT-001669 which has a deletion of amino acids 1-13 of CD40L was designed to reduce internalization and OT-001668 which has a deletion of amino acids 110-116 of CD40L was designed to remove the ADAM10/17 sites. Jurkat cells stably expressing the full length construct OT-001661, OT-001669, or OT-001668 were cultured for 6 hours with 1.25 μg/ml recombinant human (h) or mouse (m) CD40-Fc receptor or left untreated and tested using an ELISA assay (Table 15).

Jurkat cells [2] = assay: Linker length, ER regulated CD40L, % CD40L positive Jurkat cells; format: cell-based
Method: Jurkat cells were lentivirally transduced and 24 hours after transduction were treated with DMSO or 1 μM Bazedoxifene for another 24 hours and analyzed by flow cytometry for surface expression of CD40L. […] In Table 33, SR indicates stabilization ratio.

[3] = system: T cells (CD4 and CD8 positive); assay: Bazedoxifene dose response, CD40L MFI in CD4 and CD8 positive T cells (day 4, freeze/thaw, restimulation); format: cell-based
Method: Dose response with Bazedoxifene in T cells were conducted for OT-001966, OT-001967, OT-001666. Expression of CD40L was measured at (a) day 4 after transduction, (b) after freezing and thawing the cells or (c) after freezing and thawing the cells followed by restimulation with CD3/CD28 beads. The CD40L MFI (median fluorescence intensity) within CD4 and CD8 positive subpopulations is shown in Table 34 and Table 35 respectively.

HEK293T cells = assay: CD40L-ecDHFR constructs, CD40L surface expression in transfected HEK293T cells; format: cell-based, human; details: for SR (for % CD40L) / TMP/vehicle ratio of CD40L median fluorescence intensity: TMP (50 μM) versus Vehicle
Method: HEK293T cells were transiently transfected with the constructs in Table 39 (1 μg of DNA). 24 hours after transfection, the media was removed and replaced with fresh medium containing 50 μM TMP or DMSO. Another 24 hours later cells were analyzed by flow cytometry for CD40L surface expression. Table 39 provides CD40L expression as both % CD40L positive cells and the Median fluorescence intensity (MFI) values.

Jurkat cells [4] = assay: In vivo CD40L regulation in Jurkat cells harvested from bone marrow of NSG mice; details: for CD40L MFI values / Percent CD40L positive cells: Jurkat cells from bone marrow, day 16
Excerpt: Jurkat cells stably expressing OT-001661, OT-002034 were intravenously infused into 8-week old NSG mice (20 million cells per mouse). Starting by day 15, mice were orally dosed according to the study design shown in Table 42 and Jurkat cells were harvested on day 16 from the bone marrow and analyzed by FACS. In Tables 41 and 42, TMP refers to Trimethoprim and all dosing is relative to “0 hr” time point on day 16. The results are shown in Table 43 and Table 44 where “EV” refers to empty vector control.

[5] = Jurkat cells from bone marrow of mice treated with TMP versus vehicle control or empty vector
[6] = individual mice, TMP 500 mg/kg 3x oral

B1: OT-001669: CD40L construct with deletion of amino acids 1-13 of CD40L, designed to reduce internalization (protein)
chain: MHATGLPISMKIFMYLLTVFLITQMIGSALFAVYLHRRLDKIEDERNLHEDFVFMKTIQRCNTGERSLSLLNCEEIKSQFEGFVKDIMLNKEETKKENSFEMQKGDQNPQIAAHVISEASSKTTSVLQWAEKGYYTMSNNLVTLENGKQLTVKRQGLYYIYAQVTFCSNREASSQAPFIASLCLKSPGRFERILLRAANTHSSAKPCGQQSIHLGGVFELQPGASVFVNVTDPSQVSHGTGFTSFGLLKL
CD40L levels in supernatant (Jurkat cells [1]; 1.25 μg/ml hCD40-Fc): 8444.30 | CD40L levels in supernatant (Jurkat cells [1]; 1.25 μg/ml mCD40-Fc): 4335.76 | shedding of CD40L (Jurkat cells [1]; 1.25 μg/ml recombinant human CD40-Fc): enhance the shedding | CD40L levels in supernatant (Jurkat cells [1]; Untreated): 2137.69

B2: OT-001967: ER regulated CD40L construct with varied linker length (protein)
chain: MSLALSLTADQMVSALLDAEPPILYSEYDPTRPFSEASMMGLLTNLADRELVHMINWAKRVPGFVDLTLHDQVHLLECAWMEILMIGLVWRSMEHPGKLLFAPNLLLDRDQGKCVEGGVEIFDMLLATSSRFRMMNLQGEEFVCLKSIILLNSGVYTFLSSTLKSLEEKDHIHRVLDKITDTLIHLMAKAGLTLQQQHQRLAQLLLILSHIRHMSNKRMEHLYSMKCKNVVPLSDLLLEMLDAHRLGSMIETYNQTSPRSAATGLPISMKIFMYLLTVFLITQMIGSALFAVYLHRRLDKIEDERNLHEDFVFMKTIQRCNTGERSLSLLNCEEIKSQFEGFVKDIMLNKEETKKENSFEMQKGDQNPQIAAHVISEASSKTTSVLQWAEKGYYTMSNNLVTLENGKQLTVKRQGLYYIYAQVTFCSNREASSQAPFIASLCLKSPGRFERILLRAANTHSSAKPCGQQSIHLGGVFELQPGASVFVNVTDPSQVSHGTGFTSFGLLKL
Percent of Jurkat cells expressing CD40L (Jurkat cells [2]; 1 μM Bazedoxifene): 30% | SR (Jurkat cells [2]; 1 μM Bazedoxifene versus DMSO, % CD40L positive Jurkat cells): 15 | Percent of Jurkat cells expressing CD40L (Jurkat cells [2]; DMSO): 2% | CD40L expression (MFI) ([3]; CD4+ cells, Day 5, Bazedoxifene 0.01 nM): 473 | CD40L expression (MFI) ([3]; CD4+ cells, Day 5, Bazedoxifene 0.1 nM): 474 | CD40L expression (MFI) ([3]; CD4+ cells, Day 5, Bazedoxifene 1 nM): 483 | CD40L expression (MFI) ([3]; CD4+ cells, Day 5, Bazedoxifene 10 nM): 497 | CD40L expression (MFI) ([3]; CD4+ cells, Day 5, Bazedoxifene 100 nM): 630 | CD40L expression (MFI) ([3]; CD4+ cells, Day 5, Bazedoxifene 1000 nM): 998 | CD40L expression (MFI) ([3]; CD4+ cells, Day 5, Bazedoxifene 10000 nM): 1000 | CD40L expression (MFI) ([3]; CD4+ cells, Post Thaw, Bazedoxifene 0.01 nM): 156 | CD40L expression (MFI) ([3]; CD4+ cells, Post Thaw, Bazedoxifene 0.1 nM): 160 | CD40L expression (MFI) ([3]; CD4+ cells, Post Thaw, Bazedoxifene 1 nM): 161 | CD40L expression (MFI) ([3]; CD4+ cells, Post Thaw, Bazedoxifene 10 nM): 172 | CD40L expression (MFI) ([3]; CD4+ cells, Post Thaw, Bazedoxifene 100 nM): 200 | CD40L expression (MFI) ([3]; CD4+ cells, Post Thaw, Bazedoxifene 1000 nM): 223 | CD40L expression (MFI) ([3]; CD4+ cells, Post Thaw, Bazedoxifene 10000 nM): 457 | CD40L expression (MFI) ([3]; CD4+ cells, Restim, Bazedoxifene 0.01 nM): 913 | CD40L expression (MFI) ([3]; CD4+ cells, Restim, Bazedoxifene 0.1 nM): 922 | CD40L expression (MFI) ([3]; CD4+ cells, Restim, Bazedoxifene 1 nM): 913 | CD40L expression (MFI) ([3]; CD4+ cells, Restim, Bazedoxifene 10 nM): 1131 | CD40L expression (MFI) ([3]; CD4+ cells, Restim, Bazedoxifene 100 nM): 1549 | CD40L expression (MFI) ([3]; CD4+ cells, Restim, Bazedoxifene 1000 nM): 1232 | CD40L expression (MFI) ([3]; CD4+ cells, Restim, Bazedoxifene 10000 nM): 291 | CD40L expression (MFI) ([3]; CD8+ cells, Day 5, Bazedoxifene 0.01 nM): 153 | CD40L expression (MFI) ([3]; CD8+ cells, Day 5, Bazedoxifene 0.1 nM): 153 | CD40L expression (MFI) ([3]; CD8+ cells, Day 5, Bazedoxifene 1 nM): 157 | CD40L expression (MFI) ([3]; CD8+ cells, Day 5, Bazedoxifene 10 nM): 158 | CD40L expression (MFI) ([3]; CD8+ cells, Day 5, Bazedoxifene 100 nM): 226 | CD40L expression (MFI) ([3]; CD8+ cells, Day 5, Bazedoxifene 1000 nM): 424 | CD40L expression (MFI) ([3]; CD8+ cells, Day 5, Bazedoxifene 10000 nM): 392 | CD40L expression (MFI) ([3]; CD8+ cells, Post Thaw, Bazedoxifene 0.01 nM): 108 | CD40L expression (MFI) ([3]; CD8+ cells, Post Thaw, Bazedoxifene 0.1 nM): 105 | CD40L expression (MFI) ([3]; CD8+ cells, Post Thaw, Bazedoxifene 1 nM): 108 | CD40L expression (MFI) ([3]; CD8+ cells, Post Thaw, Bazedoxifene 10 nM): 114 | CD40L expression (MFI) ([3]; CD8+ cells, Post Thaw, Bazedoxifene 100 nM): 149 | CD40L expression (MFI) ([3]; CD8+ cells, Post Thaw, Bazedoxifene 1000 nM): 178 | CD40L expression (MFI) ([3]; CD8+ cells, Post Thaw, Bazedoxifene 10000 nM): 263 | CD40L expression (MFI) ([3]; CD8+ cells, Restim, Bazedoxifene 0.1 nM): 269 | CD40L expression (MFI) ([3]; CD8+ cells, Restim, Bazedoxifene 1 nM): 274 | CD40L expression (MFI) ([3]; CD8+ cells, Restim, Bazedoxifene 10 nM): 265 | CD40L expression (MFI) ([3]; CD8+ cells, Restim, Bazedoxifene 100 nM): 326 | CD40L expression (MFI) ([3]; CD8+ cells, Restim, Bazedoxifene 1000 nM): 445 | CD40L expression (MFI) ([3]; CD8+ cells, Restim, Bazedoxifene 10000 nM): 372

B3: OT-002035: CD40L-ecDHFR construct of Table 39 (protein)
chain: MSGISLIAALAVDRVIGMENAMPWNLPADLAWFKRNTLNKPVIMGRHTWESIGRPLPGRKNIILSSQPGTDDRVTWVKSVDEAIAACGDVPEIMVIGGGRVREQFLPKAQKLYLTHIDAEVEGDTHFPDYEPDDWESVFSEFHDADAQNSHSYCFEILERRHMIETYNQTSPRSAATGLPISMKIFMYLLTVFLITQMIGSALFAVYLHRRLDKIEDERNLHEDFVFMKTIQRCNTGERSLSLLNCEEIKSQFEGFVKDIMLNKEETKKENSFEMQKGDQNPQIAAHVISEASSKTTSVLQWAEKGYYTMSNNLVTLENGKQLTVKRQGLYYIYAQVTFCSNREASSQAPFIASLCLKSPGRFERILLRAANTHSSAKPCGQQSIHLGGVFELQPGASVFVNVTDPSQVSHGTGFTSFGLLKL
TMP mediated expression of CD40L (HEK293T cells; HEK293T cells, 50 μM TMP or DMSO 24 hours): exception | % CD40L (HEK293T cells; TMP (50 μM)): 23.8% | MFI (Median) (HEK293T cells; TMP (50 μM)): 8311 | SR (for % CD40L) (HEK293T cells): 0.89 | TMP/vehicle ratio of CD40L median fluorescence intensity (HEK293T cells): 0.97 | % CD40L (HEK293T cells; Vehicle): 26.7% | MFI (Median) (HEK293T cells; Vehicle): 8535

B4: OT-002034: TMP regulated CD40L construct stably expressed in Jurkat cells (protein)
chain: MSGISLIAALAVDRVIGMENAMPWNLPADLAWFKRNTLNKPVIMGRHTWESIGRPLPGRKNIILSSQPGTDDRVTWVKSVDEAIAACGDVPEIMVIGGGRVQEQFLPKAQKLYLTHIDAEVEGDTHFPDYEPDDWESVFSEFHDADAQNSHSYCFEILERRHMIETYNQTSPRSAATGLPISMKIFMYLLTVFLITQMIGSALFAVYLHRRLDKIEDERNLHEDFVFMKTIQRCNTGERSLSLLNCEEIKSQFEGFVKDIMLNKEETKKENSFEMQKGDQNPQIAAHVISEASSKTTSVLQWAEKGYYTMSNNLVTLENGKQLTVKRQGLYYIYAQVTFCSNREASSQAPFIASLCLKSPGRFERILLRAANTHSSAKPCGQQSIHLGGVFELQPGASVFVNVTDPSQVSHGTGFTSFGLLKL
CD40L MFI values (Jurkat cells [4]; Average, TMP 500 mg/kg 3x oral): 520.75 | Percent CD40L positive cells (Jurkat cells [4]; Average, TMP 500 mg/kg 3x oral): 53.4% | CD40L MFI values (Jurkat cells [4]; Average, Vehicle): 93.65 | Percent CD40L positive cells (Jurkat cells [4]; Average, Vehicle): 1.82% | % CD40L positive cells (Jurkat cells [4]; [5]): increased | CD40L values (MFI) (Jurkat cells [4]; [5]): increased | CD40L MFI values (Jurkat cells [4]; [6]): 608 and 542 and 505 and 428 | Percent CD40L positive cells (Jurkat cells [4]; [6]): 61% and 56.3% and 52.2% and 44.1% | CD40L MFI values (Jurkat cells [4]; individual mice, Vehicle): 101 and 80.6 and 97.9 and 95.1 | Percent CD40L positive cells (Jurkat cells [4]; individual mice, Vehicle): 2.36% and 0.83% and 2.17% and 1.92% | % CD40L (HEK293T cells; TMP (50 μM)): 71.1% | MFI (Median) (HEK293T cells; TMP (50 μM)): 20569 | SR (for % CD40L) (HEK293T cells): 2.44 | TMP/vehicle ratio of CD40L median fluorescence intensity (HEK293T cells): 2.59 | % CD40L (HEK293T cells; Vehicle): 29.1% | MFI (Median) (HEK293T cells; Vehicle): 7957
